Experimental data reported in US20090304588A1.

Target: T1, Hyperpolarization-activated cyclic-nucleotide-gated (HCN) ion channel 1 (HCN1)
T1 sequence (O60741 1-890, species assumed, looked up): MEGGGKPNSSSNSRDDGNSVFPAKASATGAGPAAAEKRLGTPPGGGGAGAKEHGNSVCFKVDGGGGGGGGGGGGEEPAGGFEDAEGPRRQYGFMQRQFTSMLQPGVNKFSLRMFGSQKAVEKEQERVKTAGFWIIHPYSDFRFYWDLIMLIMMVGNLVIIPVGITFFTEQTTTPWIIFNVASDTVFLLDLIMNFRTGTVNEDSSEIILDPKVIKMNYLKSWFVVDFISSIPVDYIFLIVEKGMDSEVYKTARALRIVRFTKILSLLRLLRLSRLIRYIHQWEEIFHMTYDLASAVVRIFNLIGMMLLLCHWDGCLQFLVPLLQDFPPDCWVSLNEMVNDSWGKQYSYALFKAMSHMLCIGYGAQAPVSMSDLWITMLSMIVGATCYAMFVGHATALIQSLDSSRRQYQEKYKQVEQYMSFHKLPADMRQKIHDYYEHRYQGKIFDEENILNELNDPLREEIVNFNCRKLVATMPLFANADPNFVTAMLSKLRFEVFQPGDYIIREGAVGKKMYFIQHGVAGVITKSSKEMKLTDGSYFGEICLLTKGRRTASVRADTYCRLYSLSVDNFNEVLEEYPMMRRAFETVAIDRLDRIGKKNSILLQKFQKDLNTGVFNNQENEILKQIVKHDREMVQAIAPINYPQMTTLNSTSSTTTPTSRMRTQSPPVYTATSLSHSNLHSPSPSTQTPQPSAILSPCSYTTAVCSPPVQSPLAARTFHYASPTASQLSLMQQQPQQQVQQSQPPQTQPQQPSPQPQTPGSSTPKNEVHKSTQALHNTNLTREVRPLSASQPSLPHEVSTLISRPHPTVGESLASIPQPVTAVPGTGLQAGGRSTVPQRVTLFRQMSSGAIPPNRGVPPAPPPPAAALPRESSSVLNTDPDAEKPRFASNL
Assay: cell-based or functional assay

reversal potential of HCN co-transfected with SPC: -22 mV
reversal potential of the current left after superfusion with Cs to block HCN1 homomultimers: -11.1 mV
Substance: S4TKv1.4GYS (human Kv1.4 with S4 triple mutation R447N, L448A, R453I and pore mutation G528S) (from UniProt P22459 1-653)
